Drawing on publication doi:10.1101/183848, this text covers Gag-ABCE1 PLA spots per cell (PLA spots per cell) for 1 substance.

The test has as its target ATP binding cassette protein E1 (ABCE1), endogenous in 293T/17 cells (human (endogenous in 293T/17)) (UniProt P61221). The experiment in a line: proximity ligation.

For the substance “FIV Gag, wild type, expressed from the FIV pro- env- provirus (natural protein)”, the Gag-ABCE1 PLA spots per cell (PLA spots per cell) was found to be 34.9.
